Holding throughout (assay): ITC
For orientation: ITC needs no label: the signal is the heat of the interaction.

Assay [1] deals with REV7^K129A (human, UniProt Q9UI95 1-211, K129A).
In assay [2] the target is REV7^Y63A (human, UniProt Q9UI95 1-211, Y63A).
For assay [3], the target named is REV7^W171A (human, UniProt Q9UI95 1-211, W171A).
In assay [4] the target is REV7^WT-REV3(1871–2021) (human, UniProt Q9UI95 1-211; O60673 1871-2021).

Results on 3 molecules are retold here after article PMC7181697 (2020).

Sequence of REV7^K129A (Q9UI95 whole entry K129A): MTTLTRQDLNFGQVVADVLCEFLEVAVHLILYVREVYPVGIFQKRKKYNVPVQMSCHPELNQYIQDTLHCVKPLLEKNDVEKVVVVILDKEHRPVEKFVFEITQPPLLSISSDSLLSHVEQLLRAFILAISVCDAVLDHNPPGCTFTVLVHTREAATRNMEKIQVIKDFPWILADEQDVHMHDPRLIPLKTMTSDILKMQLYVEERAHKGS
Sequence of REV7^Y63A (Q9UI95 whole entry Y63A): as the sequence (Q9UI95 whole entry K129A) above, with Y63A, A129K counted along it
Sequence of REV7^W171A (Q9UI95 whole entry W171A): as the sequence (Q9UI95 whole entry K129A) above, with A129K, W171A counted along it
Sequence of REV7^WT-REV3(1871–2021) (Q9UI95 whole entry, chain 1 of 2): as the sequence (Q9UI95 whole entry K129A) above, with A129K counted along it
Sequence of REV7^WT-REV3(1871–2021) (O60673 1871-2021, chain 2 of 2): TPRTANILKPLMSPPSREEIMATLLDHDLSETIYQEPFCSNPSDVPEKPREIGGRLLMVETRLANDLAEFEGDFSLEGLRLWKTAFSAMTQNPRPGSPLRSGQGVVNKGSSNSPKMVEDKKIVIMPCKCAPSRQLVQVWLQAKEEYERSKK

B1: REV3(1847-1906) (domain or fragment)
chain: MLTPTPDSSPRSTSSPSQSKNGSFTPRTANILKPLMSPPSREEIMATLLDHDLSETIYQE
B1: in assay [1], the dissociation constant (Kd) was 7.3 nM.

B2: SHLD3(1–82) with C-terminal His6-tag (domain or fragment)
chain: MTTEVILHYRPCESDPTQLPKIAEKAIQDFPTRPLSRFIPWFPYDGSKLPLRPKRSPPVISEEAAEDVKQYLTISEHDAKSH
Turning to B2, the equilibrium dissociation constant (Kd) came to 4.8 nM in assay [1], 160 nM in assay [2] and 170 nM in assay [3].

B3: cREV1 CTD (chimeric REV1 CTD: POL κ RIR fused to the N-terminus of REV1 CTD) (other)
chain: SHKKSFFDKKRSERKWGLSSLQSDPAGCVRPPAPNLAGAVEFNDVKTLLREWITTISDPMEEDILQVVKYCTDLIEEKDLEKLDLVIKYMKRLMQQSVESVWNMAFDFILDNVQVVLQQTYGSTLKVT
In assay [4], B3 registered a dissociation constant Kd of 1600 nM.

As a reminder, the Kd is the free concentration of one partner at which half of the binding sites on the other are occupied at equilibrium, for simple one-to-one binding. A higher Kd goes with lower affinity.
